Laboratory results reported in paper PMC3923297, “Structural basis for microtubule recognition by the human kinetochore Ska complex” (Nature Communications, 2014).
Values joined by “and” are separate entries in the source; they are usually repeats but may differ in a detail not shown here. Identical values can stand only once.

Experiments:
[1] = target: T1, microtubules polymerised from tubulin (α1B and β2B tubulin) (UniProt P81947 1-451; Q6B856 1-445); test: co-sedimentation; MT-pelleting assay: taxol-stabilized MTs or subtilisin-treated MTs (0-12 μM tubulin dimer) with 1 or 3 μM protein, 10 min at room temperature, BRB80 (80 mM PIPES pH 6.9, 1 mM EGTA, 1 mM MgCl2) with 100 mM NaCl, 4 mM DTT, 20 μM taxol; spun through a glycerol cushion, 25 °C; SDS-PAGE, Coomassie, ImageJ. Kd: 1 μM Ska and 0-12 μM MTs; single points: 3 μM Ska (or 1 μM) and 6 μM MTs; conditions: both partners purified
T1 construct: α-tubulin, printed as α1B tubulin; β-tubulin, printed as β2B tubulin; Polymer of α/β-tubulin dimers; The same tubulin stood as taxol-stabilized (straight) MTs and as vinblastine spirals (curved); the assay tells them apart; brain tubulin is a mix of isotypes; also called MTs; taxol-stabilized MTs; source: bought: Cytoskeleton Inc. (tubulin), polymerised; taxol-stabilized MTs or vinblastine spirals
T1 sequence (P81947 whole entry, chain 1 of 2): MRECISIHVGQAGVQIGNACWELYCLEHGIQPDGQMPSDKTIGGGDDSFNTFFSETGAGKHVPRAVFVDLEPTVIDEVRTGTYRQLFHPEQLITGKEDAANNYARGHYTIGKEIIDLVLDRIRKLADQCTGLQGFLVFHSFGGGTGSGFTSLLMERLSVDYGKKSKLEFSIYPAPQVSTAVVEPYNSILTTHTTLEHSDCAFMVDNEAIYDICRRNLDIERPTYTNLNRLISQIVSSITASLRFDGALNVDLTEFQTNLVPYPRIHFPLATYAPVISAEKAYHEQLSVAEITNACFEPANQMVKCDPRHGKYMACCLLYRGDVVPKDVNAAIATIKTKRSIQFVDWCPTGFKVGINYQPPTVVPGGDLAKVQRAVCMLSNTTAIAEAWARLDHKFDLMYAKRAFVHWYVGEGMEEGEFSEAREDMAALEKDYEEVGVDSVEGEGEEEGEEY
T1 sequence (Q6B856 whole entry, chain 2 of 2): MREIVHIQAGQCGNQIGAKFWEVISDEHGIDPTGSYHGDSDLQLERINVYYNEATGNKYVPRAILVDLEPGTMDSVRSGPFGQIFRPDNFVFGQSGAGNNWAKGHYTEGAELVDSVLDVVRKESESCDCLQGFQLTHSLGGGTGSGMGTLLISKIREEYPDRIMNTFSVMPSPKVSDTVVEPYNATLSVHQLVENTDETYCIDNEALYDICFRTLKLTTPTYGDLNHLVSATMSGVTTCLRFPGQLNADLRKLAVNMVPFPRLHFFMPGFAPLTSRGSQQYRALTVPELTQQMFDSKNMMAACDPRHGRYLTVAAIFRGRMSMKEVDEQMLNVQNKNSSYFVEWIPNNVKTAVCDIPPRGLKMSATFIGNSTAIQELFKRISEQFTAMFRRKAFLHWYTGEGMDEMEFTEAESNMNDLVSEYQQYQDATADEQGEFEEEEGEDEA

[2] = target: microtubules polymerised from tubulin (α1B and β2B tubulin), P81947;Q6B856; test: MT cosedimentation assay; conditions: 3 μM Ska and 6 μM vinblastine spirals; parent: est. 0.60; read off a plot

B1: human Ska complex (Ska1, Ska2, Ska3), wild type, full length (complex)
chain 1: MASSDLEQLCSHVNEKIGNIKKTLSLRNCGQEPTLKTVLNKIGDEIIVINELLNKLELEIQYQEQTNNSLKELCESLEEDYKDIEHLKENVPSHLPQVTVTQSCVKGSDLDPEEPIKVEEPEPVKKPPKEQRSIKEMPFITCDEFNGVPSYMKSRLTYNQINDVIKEINKAVISKYKILHQPKKSMNSVTRNLYHRFIDEETKDTKGRYFIVEADIKEFTTLKADKKFHVLLNILRHCRRLSEVRGGGLTRYVIT
chain 2: MEAEVDKLELMFQKAESDLDYIQYRLEYEIKTNHPDSASEKNPVTLLKELSVIKSRYQTLYARFKPVAVEQKESKSRICATVKKTMNMIQKLQKQTDLELSPLTKEEKTAAEQFKFHMPDL
chain 3: MDPIRSFCGKLRSLASTLDCETARLQRALDGEESDFEDYPMRILYDLHSEVQTLKDDINILLDKARLENQEGIDFIKATKVLMEKNSMDIMKIREYFQKYGYSPRVKKNSVHEQEAINSDPELSNCENFQKTDVKDDLSDPPVASSCISEKSPRSPQLSDFGLERYIVSQVLPNPPQAVNNYKEEPVIVTPPTKQSLVKVLKTPKCALKMDDFECVTPKLEHFGISEYTMCLNEDYTMGLKNARNNKSEEAIDTESRLNDNVFATPSPIIQQLEKSDAEYTNSPLVPTFCTPGLKIPSTKNSIALVSTNYPLSKTNSSSNDLEVEDRTSLVLNSDTCFENLTDPSSPTISSYENLLRTPTPPEVTKIPEDILQLLSKYNSNLATPIAIKAVPPSKRFLKHGQNIRDVSNKEN
notes: Ska1, human; Ska2, human; Ska3, human, V58I as cloned; Ska3 V58I is printed without explanation; TEV-cleavable tags removed in solution; also called WT Ska complex; FL Ska complex; source: E. coli BL21 Gold, co-expressed, purified (glutathione sepharose, size-exclusion chromatography); copies: 2 + 2 + 2
Kd [1]: 2900 ± 600 nM
response (bound fraction) [2]: 0.63 and 0.21 and 0.31
